B1: Syntaxin-binding protein 2 (Homo sapiens), Q15833 (parent)
chain: MAPSGLKAVVGEKILSGVIRSVKKDGEWKVLIMDHPSMRILSSCCKMSDILAEGITIVEDINKRREPIPSLEAIYLLSPTEKSVQALIKDFQGTPTFTYKAAHIFFTDTCPEPLFSELGRSRLAKVVKTLKEIHLAFLPYEAQVFSLDAPHSTYNLYCPFRAEERTRQLEVLAQQIATLCATLQEYPAIRYRKGPEDTAQLAHAVLAKLNAFKADTPSLGEGPEKTRSQLLIMDRAADPVSPLLHELTFQAMAYDLLDIEQDTYRYETTGLSEAREKAVLLDEDDDLWVELRHMHIADVSKKVTELLRTFCESKRLTTDKANIKDLSQILKKMPQYQKELNKYSTHLHLADDCMKHFKGSVEKLCSVEQDLAMGSDAEGEKIKDSMKLIVPVLLDAAVPAYDKIRVLLLYILLRNGVSEENLAKLIQHANVQAHSSLIRNLEQLGGTVTNPGGSGTSSRLEPRERMEPTYQLSRWTPVIKDVMEDAVEDRLDRNLWPFVSDPAPTASSQAAVSARFGHWHKNKAGIEARAGPRLIVYVMGGVAMSEMRAAYEVTRATEGKWEVLIGSSHILTPTRFLDDLKALDKKLEDIALP
partner: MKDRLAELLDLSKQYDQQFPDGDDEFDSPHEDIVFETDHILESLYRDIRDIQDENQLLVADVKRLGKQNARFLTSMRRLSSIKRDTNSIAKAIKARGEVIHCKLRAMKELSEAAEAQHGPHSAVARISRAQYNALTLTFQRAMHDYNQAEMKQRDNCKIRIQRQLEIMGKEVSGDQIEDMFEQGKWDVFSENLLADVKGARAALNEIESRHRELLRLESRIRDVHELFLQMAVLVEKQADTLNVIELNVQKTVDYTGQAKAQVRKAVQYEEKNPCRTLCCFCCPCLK

Variants of: B1
Conditions: with stx11_human STX11, O75558

| Variant | effect of a mutation on the interaction |
| --- | --- |
| MAPSGLKAVVGEKILSGVIRSVKKDGEWKVLIMDHPSMRILSSCCKMSDILAEGITIVEDINKRREPIPSLEAIYLLSPTEKSVQALIKDFQGTPTFTYKAAHIFFTDTCPEPLFSELGRSRLAKVVKTLKEIHLAFLPYEAQVFSLDAPHSTYNLYCPFRAEERTRQLEVLAQQIATLCATLQEYPAIRYRKGPEDTAQLAHAVLAKLNAFKADTPSLGEGPEKTRSQLLIMDRAADPVSPLLHELTFQAMAYDLLDIEQDTYRYETTGLSEAREKAVLLDEDDDLWVELHHMHIADVSKKVTELLRTFCESKRLTTDKANIKDLSQILKKMPQYQKELNKYSTHLHLADDCMKHFKGSVEKLCSVEQDLAMGSDAEGEKIKDSMKLIVPVLLDAAVPAYDKIRVLLLYILLRNGVSEENLAKLIQHANVQAHSSLIRNLEQLGGTVTNPGGSGTSSRLEPRERMEPTYQLSRWTPVIKDVMEDAVEDRLDRNLWPFVSDPAPTASSQAAVSARFGHWHKNKAGIEARAGPRLIVYVMGGVAMSEMRAAYEVTRATEGKWEVLIGSSHILTPTRFLDDLKALDKKLEDIALP [R292H] | disrupting interaction strength |
| MAPSGLKAVVGEKILSGVIRSVKKDGEWKVLIMDHPSMRILSSCCKMSDILAEGITIVEDINKRREPIPSLEAIYLLSPTEKSVQALIKDFQGTPTFTYKAAHIFFTDTCPEPLFSELGRSRLAKVVKTLKEIHLAFLPYEAQVFSLDAPHSTYNLYCPFRAEERTRQLEVLAQQIATLCATLQEYPAIRYRKGPEDTAQLAHAVLAKLNAFKADTPSLGEGPEKTRSQLLIMDRAADPVSPLLHELTFQAMAYDLLDIEQDTYRYETTGLSEAREKAVLLDEDDDLWVELRHMHIADVSKKVTELLRTFCESKRLTTDKANIKDLSQILKKMPQYQKELNKYSTHLHLADDCMKHFKGSVEKLCSVEQDLAMGSDAEGEKIKDSMKLIVPVLLDAAVPAYDKIEVLLLYILLRNGVSEENLAKLIQHANVQAHSSLIRNLEQLGGTVTNPGGSGTSSRLEPRERMEPTYQLSRWTPVIKDVMEDAVEDRLDRNLWPFVSDPAPTASSQAAVSARFGHWHKNKAGIEARAGPRLIVYVMGGVAMSEMRAAYEVTRATEGKWEVLIGSSHILTPTRFLDDLKALDKKLEDIALP [R405E] | disrupting interaction strength |

Now from value to variant:

| effect of a mutation on the interaction | Variant |
| --- | --- |
| disrupting interaction strength | MAPSGLKAVVGEKILSGVIRSVKKDGEWKVLIMDHPSMRILSSCCKMSDILAEGITIVEDINKRREPIPSLEAIYLLSPTEKSVQALIKDFQGTPTFTYKAAHIFFTDTCPEPLFSELGRSRLAKVVKTLKEIHLAFLPYEAQVFSLDAPHSTYNLYCPFRAEERTRQLEVLAQQIATLCATLQEYPAIRYRKGPEDTAQLAHAVLAKLNAFKADTPSLGEGPEKTRSQLLIMDRAADPVSPLLHELTFQAMAYDLLDIEQDTYRYETTGLSEAREKAVLLDEDDDLWVELRHMHIADVSKKVTELLRTFCESKRLTTDKANIKDLSQILKKMPQYQKELNKYSTHLHLADDCMKHFKGSVEKLCSVEQDLAMGSDAEGEKIKDSMKLIVPVLLDAAVPAYDKIRVLLLYILLRNGVSEENLAKLIQHANVQAHSSLIRNLEQLGGTVTNPGGSGTSSRLEPRERMEPTYQLSRWTLVIKDVMEDAVEDRLDRNLWPFVSDPAPTASSQAAVSARFGHWHKNKAGIEARAGPRLIVYVMGGVAMSEMRAAYEVTRATEGKWEVLIGSSHILTPTRFLDDLKALDKKLEDIALP [P477L] |
| disrupting interaction strength | MAPSGLKAVVGEKILSGVIRSVKKDGEWKVLIMDHPSMRILSSCCKMSDILAEGITIVEDINKRREPIPSLEAIYLLSPTEKSVQALIKDFQGTPTFTYKAAHIFFTDTCPEPLFSELGRSRLAKVVKTLKEIHLAFLPYEAQVFSLDAPHSTYNLYCPFRAEERTRQLEVLAQQIATLCATLQEYPAIRYRKGPEDTAQLAHAVLAKLNAFKADTPSLGEGPEKTRSQLLIMDRAADPVSPLLHELTFQAMAYDLLDIEQDTYRYETTGLSEAREKAVLLDEDDDLWVELRHMHIADVSKKVTELLRTFCESKRLTTDKANIKDLSQILKKMPQYQKELNKYSTHLHLADDCMKHFKGSVEKLCSVEQDLAMGSDAEGEKIKDSMKLIVPVLLDAAVPAYDKIWVLLLYILLRNGVSEENLAKLIQHANVQAHSSLIRNLEQLGGTVTNPGGSGTSSRLEPRERMEPTYQLSRWTPVIKDVMEDAVEDRLDRNLWPFVSDPAPTASSQAAVSARFGHWHKNKAGIEARAGPRLIVYVMGGVAMSEMRAAYEVTRATEGKWEVLIGSSHILTPTRFLDDLKALDKKLEDIALP [R405W] |

— IntAct's records for PubMed 19804848
